Data published in patent US20120315284.

T1: GST-c-Jun, P05412
T1 chain: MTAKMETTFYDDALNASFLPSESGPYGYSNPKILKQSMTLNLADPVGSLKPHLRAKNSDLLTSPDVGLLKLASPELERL


Columns and labels:
[1] = biological target: recombination GST-JNK1, P45983
[2] = biological target: T1, GST-c-Jun, P05412

Protein	in vitro immune-co-kinase analysis (32P phosphorylation by immunoprecipitated MKK7) [1]	in vitro immune-co-kinase analysis (32P phosphorylation) [2]
MKK7 in cell lysate (immunoprecipitated with MKK7 antibody; the cells' own MKK7) (protein) AASSLEQKLSRLEAKLKQENREARRRIDLNLDISPQRPRPTLQLPLANDGGSRSPSSESSPQHPTPPARPRHMLGLPSTLFTPRSMESIEIDQKLQEIMKQTGYLTIGGQRYQAEINDLENLGEMGSGTCGQVWKMRFRKTGHVIAVKQMRRSGNKEENKRILMDLDVVLKSHDCPYIVQCFGTFITNTDVFIAMELMGTCAEKLKKRMQGPIPERILGKMTVAIVKALYYLKEKHGVIHRDVKPSNILLDERGQIKLCDFGISGRLVDSKAKTRSAGCAAYMAPERIDPPDPTKPDYDIRADVWSLGISLVELATGQFPYKNCKTDFEVLTKVLQEEPPLLPGHMGFSGDFQSFVKDCLTKDHRKRPKYNKLLEHSFIKRYETLEVDVASWFKDVMAKTESPRTSGVLSQPHLPFFR	MKK7 was activated by depletion of TIP41 and phosphorylated GST-JNK1, a substrate of MKK7	
recombination GST-JNK1 (protein) MSRSKRDNNFYSVEIGDSTFTVLKRYQNLKPIGSGAQGIVCAAYDAILERNVAIKKLSRPFQNQTHAKRAYRELVLMKCVNHKNIIGLLNVFTPQKSLEEFQDVYIVMELMDANLCQVIQMELDHERMSYLLYQMLCGIKHLHSAGIIHRDLKPSNIVVKSDCTLKILDFGLARTAGTSFMMTPYVVTRYYRAPEVILGMGYKENVDLWSVGCIMGEMVCHKILFPGRDYIDQWNKVIEQLGTPCPEFMKKLQPTVRTYVENRPKYAGYSFEKLFPDVLFPADSEHNKLKASQARDLLSKMLVIDASKRISVDEALQHPYINVWYDPSEAEAPPPKIPDKQLDEREHTIEEWKELIYKEVMDLEERTKNGVIRGQPSPLAQVQQ		the activated JNK1 phosphorylated GST-c-jun protein, a substrate of JNK pathway
